Reference: patent publication US20230068783A1 (TAVOTEK BIOTHERAPEUTICS HONG KONG, published 2023)
Positions count from the first letter of the chain named.

T1: IL-1β receptor IL-1R on the surface of HEK-Blue IL-1β cells (UniProt P14778 18-569, limits assumed)
T1 sequence (looked up): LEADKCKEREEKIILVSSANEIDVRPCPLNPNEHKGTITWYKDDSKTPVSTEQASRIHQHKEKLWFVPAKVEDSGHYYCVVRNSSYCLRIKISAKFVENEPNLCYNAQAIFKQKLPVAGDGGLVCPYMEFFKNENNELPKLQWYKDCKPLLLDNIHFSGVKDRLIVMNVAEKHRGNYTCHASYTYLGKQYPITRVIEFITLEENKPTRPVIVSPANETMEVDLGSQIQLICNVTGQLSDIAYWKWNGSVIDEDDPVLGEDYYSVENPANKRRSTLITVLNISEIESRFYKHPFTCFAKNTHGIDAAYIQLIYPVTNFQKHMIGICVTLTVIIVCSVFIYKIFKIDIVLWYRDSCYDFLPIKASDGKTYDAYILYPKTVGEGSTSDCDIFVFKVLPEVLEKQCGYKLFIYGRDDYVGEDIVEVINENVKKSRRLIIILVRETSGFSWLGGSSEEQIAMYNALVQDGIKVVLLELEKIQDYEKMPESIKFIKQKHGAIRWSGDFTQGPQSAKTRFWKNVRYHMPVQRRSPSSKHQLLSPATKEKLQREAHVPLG

T2: human IL-1α (human, UniProt P01583 113-271)
T2 construct: Purified recombinant protein
T2 sequence (looked up): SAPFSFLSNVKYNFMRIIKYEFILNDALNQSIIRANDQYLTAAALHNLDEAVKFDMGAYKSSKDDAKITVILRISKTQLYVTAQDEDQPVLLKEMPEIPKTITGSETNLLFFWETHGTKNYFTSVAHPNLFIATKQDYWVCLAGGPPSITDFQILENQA

T3: mouse IL-1β (mouse, UniProt P10749 118-269)
T3 sequence (looked up): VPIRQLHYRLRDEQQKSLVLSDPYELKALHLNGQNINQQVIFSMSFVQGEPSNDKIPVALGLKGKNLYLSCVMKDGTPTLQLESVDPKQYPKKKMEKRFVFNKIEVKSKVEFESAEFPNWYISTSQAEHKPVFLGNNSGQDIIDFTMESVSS

B1: Rhesus monkey IL-1β (ligand, UniProt P48090 117-269, looked up)
chain: APVRSLHCTLRDAQLKSLVMSGPYELKALHLQGQDLEQQVVFSMSFVQGEESNDKIPVALGLKAKNLYLSCVLKDDKPTLQLESVDPKNYPKKKMEKRFVFNKIEINNKLEFESAQFPNWYISTSQAENMPVFLGGTRGGQDITDFTMQFVSS
B2: TAVO7376 (humanized IgG1 antibody, 304VH1 with 304VL1) (antibody, V domains shown)
VH: EVQLVESGGGLVQPGGSLRLSCAASGFTFSSFGMHWVRQAPGKGLEWVAYISIGSYTVHYADSVKGRFTISRDNAKNSLYLQMNSLRDEDTAVYYCVRDDYDVTDYTMDYWGQGTTVTVSS
VL: DIQMTQSPSSLSASVGDRVTITCKSSQSLLNSRTRKNYLAWYQQKPGKAPKLLIYWASTRESGVPSRFSGSGSGTDFTLTISSLQPEDFATYYCKQTYNFPTFGQGTKLEIKR
notes: Humanized IgG1
B3: TAVO7377 (humanized IgG1 antibody, 304VH1 with 304VL2) (antibody, V domains shown)
VH: B2 VH
VL: B2 VL with I21M, L84V, F89L
notes: Humanized IgG1
B4: mouse monoclonal anti-human IL-1β antibody TAVO304 (antibody, V domains shown)
VH: DVQLVESGGGLVQPGGSRKLSCAASGFTFSSFGMHWVRQAPEKGLEWVAYISIGSYTVHYADTVKGRFTISRDNPKNTLFLQMTSLRSEDTAMYYCVRDDYDVTDYTMDYWGQGTSVTVSS
VL: DIVMSQSPSSLAVSTGEKVTMSCKSSQSLLNSRTRKNYLAWYQQKPGQSPKLLIYWASTRESGVPDRFTGSGSGTDFTLTIGSVQAEDLAVYYCKQTYNFPTFGGGTKLEIK
notes: Mouse monoclonal antibody from hybridoma screening

Legend:
[1] = biological target: T1, IL-1β receptor IL-1R on the surface of …; test: cell-based or functional assay
[2] = biological target: T4, recombinant human IL-1β (R&D systems) (human, UniProt P01584 117-269); test: cell-based or functional assay
[3] = biological target: B1; test: cell-based or functional assay
[4] = biological target: T2, human IL-1α; test: ELISA with purified recombinant protein
Experimental: To evaluate the binding specificity, cytokines homologous to IL-1β such as IL-1α were evaluated for binding to humanized antibodies in ELISA-based binding assay with purified recombinant protein.

[5] = biological target: T3, mouse IL-1β; test: ELISA, plate coated with mouse IL-1β
Experimental: (§1) By hybridoma screening, TAVO304 was identified as a mouse anti-human IL-1β antibody. ELISA-based binding assay was employed to evaluate TAVO304 binding to recombinant human IL-1β. In this assay, 1 μg/ml recombinant human IL-1β (R&D systems) were coated on ELISA plate. Increasing concentrations of TAVO304 antibodies were applied on the plate and their binding to the recombinant human IL-1P were detected by HRP-conjugated anti-mouse secondary antibody.
(§2) The binding of TAVO304 to mouse and Rhesus monkey IL-1β were also evaluated in similar ELISA assay by coating the plate with mouse and Rhesus monkey IL-1β respectively.

[6] = biological target: B1; test: ELISA, plate coated with Rhesus monkey IL-1β
Experimental: as §1, §2

[7] = biological target: T4, recombinant human IL-1β (R&D systems); test: ELISA, 1 µg/ml recombinant human IL-1β coated, HRP anti-mouse secondary antibody
Experimental: as §1

Binder | EC50 of reporter gene (SEAP) expression in HEK-Blue IL-1β reporter assay [1] | IC50 of blocking human IL-1β-mediated IL-6 release from MRC-5 cells [2] | IC50 of neutralizing human IL-1β driven reporter gene expression, HEK-Blue IL-1β reporter assay [2] | IC50 of neutralizing rhesus monkey IL-1β driven reporter gene expression, HEK-Blue IL-1β reporter assay [3] | binding result [4] | binding result [5] | fold potency against reference antibody refAb-1 in IL-1β inhibition, HEK-Blue IL-1β reporter assay [2] | EC50 [6] | EC50 [7]
B1 | 0.00016 µg/mL | – | – | – | – | – | – | – | –
B2 | – | ~0.05 µg/mL | ~0.09 µg/mL | ~0.018 µg/mL | no binding (tested: 1 ug/mL) | – | – | – | –
B3 | – | ~0.05 µg/mL | ~0.09 µg/mL | ~0.018 µg/mL | no binding (tested: 1 ug/mL) | – | – | – | –
B4 | – | – | 0.12 µg/mL | 0.0036 µg/mL | – | no binding | > 6 fold | 0.0122 µg/mL | 0.0036 µg/mL
